According to patent publication US20230265151A1, “GIP/GLP1 CO-AGONIST COMPOUNDS” (priority 2020, published 2023):
Substitutions are numbered along the chain they refer to. *1 amine or outer side, *2 acyl side, *3 side chain or, on linkers, in order; H or OH if unused. Where no end group is shown, it is not given here. Side-chain parts run from the residue outwards. [ ]: non-standard residue; d: D form. The star is where a group is joined. Decanoyl(10-(4-HOOC-PhO)) = O=C(O)c1ccc(OCCCCCCCCCC(=O)*)cc1; αMePhe(2-F) = C[C@](N)(Cc1ccccc1F)C(=O)O; γGlu = O=C(O)[C@H](CCC(=O)[*:2])N[*:1]; αMeY = C[C@](N)(Cc1ccc(O)cc1)C(=O)O; αMeL = CC(C)C[C@](C)(N)C(=O)O; Nle = CCCC[C@H](N)C(=O)O; Orn = NCCC[C@H](N)C(=O)O; AEEA = NCCOCCOCC(=O)O; Aib = CC(C)(N)C(=O)O

T1: human GIP receptor (human, UniProt P48546 22-466)
T1 sequence (looked up): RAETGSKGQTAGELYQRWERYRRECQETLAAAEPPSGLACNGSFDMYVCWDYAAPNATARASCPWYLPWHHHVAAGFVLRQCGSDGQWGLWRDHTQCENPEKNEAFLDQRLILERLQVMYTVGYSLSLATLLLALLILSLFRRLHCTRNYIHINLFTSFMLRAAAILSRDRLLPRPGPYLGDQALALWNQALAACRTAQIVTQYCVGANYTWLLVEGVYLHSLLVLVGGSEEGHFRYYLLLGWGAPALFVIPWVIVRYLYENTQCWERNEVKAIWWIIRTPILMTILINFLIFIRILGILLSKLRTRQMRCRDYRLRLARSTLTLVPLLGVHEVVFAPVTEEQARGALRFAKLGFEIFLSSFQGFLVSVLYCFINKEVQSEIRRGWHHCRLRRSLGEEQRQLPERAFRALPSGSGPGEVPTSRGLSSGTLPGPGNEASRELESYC

T2: human glucose-dependent insulinotropic polypeptide (GIP) receptor (human) (UniProt P48546)
T2 sequence (looked up): T1 sequence (looked up)

T3: human GIP receptor (human, UniProt P48546 22-466)
T3 sequence (looked up): T1 sequence (looked up)

B1: Example 247 (peptide)
peptide: YXEGTXTSDXXIXLDXIAQXKFIXXLIKGGPSSGAPPPS
modifications: Y-Aib-EGT-αMeF(2F)-TSD-4Pal-Aib-I-αMeL-LD-Orn-IAQ-Aib-K((2-[2-(2-Amino-ethoxy)-ethoxy]-acetyl)2-(γ-Glu)-(10-(4-carboxyphenoxy)decanoyl))FI-(D-Glu)-αMeY-LIK((2-[2-(2-Amino-ethoxy)-ethoxy]-acetyl)2-(γ-Glu)-(10-(4-carboxyphenoxy)decanoyl))GGPSSGAPPPS-NH2
B2: Example 242 (peptide)
peptide: YXEGTXTSDXXIXLDXIAQXKFIXXLIEGGPSSGAPPPSK
modifications: Y-Aib-EGT-αMeF(2F)-TSD-4Pal-Aib-I-αMeL-LD-Orn-IAQ-Aib-K(2-[2-(2-Amino-ethoxy)-ethoxy]-acetyl)2-(γ-Glu)-(11-(4-carboxyphenoxy)undecanoyl)FI-(D-Glu)-αMeY-LIEGGPSSGAPPPSK((2-[2-(2-Amino-ethoxy)-ethoxy]-acetyl)2-(γ-Glu)-(11-(4-carboxyphenoxy)undecanoyl)-NH2)
B3: Example 291 (peptide)
peptide: B2 peptide with X11S, I17K, K21E
modifications: Aib2, αMeF(2F)6, OMeY10, αMeL13, Orn16, Aib20, D-Glu24, αMeY25; K17 and K40: AEEA2-(γ-Glu)-CO-(CH2)10-CH3; C-terminal NH2
B4: Example 245 (peptide)
peptide: B2 peptide with I17K, K21E
modifications: Y-Aib-EGT-αMeF(2F)-TSD-4Pal-Aib-I-αMeL-LD-Orn-K((2-[2-(2-Amino-ethoxy)-ethoxy]-acetyl)2-(γ-Glu)-(10-(4-carboxyphenoxy)decanoyl))AQ-Aib-EFI-(D-Glu)-αMeY-LIEGGPSSGAPPPSK((2-[2-(2-Amino-ethoxy)-ethoxy]-acetyl)2-(γ-Glu)-(10-(4-carboxyphenoxy)decanoyl))-NH2
B5: Example 248 (peptide)
peptide: B2 peptide
modifications: Y-Aib-EGT-αMeF(2F)-TSD-4Pal-Aib-I-αMeL-LD-Orn-IAQ-Aib-K((2-[2-(2-Amino-ethoxy)-ethoxy]-acetyl)2-(γ-Glu)-(10-(4-carboxyphenoxy)decanoyl))FI-(D-Glu)-αMeY-LIEGGPSSGAPPPSK((2-[2-(2-Amino-ethoxy)-ethoxy]-acetyl)2-(γ-Glu)-(10-(4-carboxyphenoxy)decanoyl))-NH2
B6: Example 314 (peptide)
peptide: Y[Aib]EGT[αMePhe(2-F)]TSD[Nle]SI[αMeL]LD[Orn]IAQ[Aib]EFIK([AEEA-AEEA-γGlu-Decanoyl(10-(4-HOOC-PhO))])[αMeY]LIK([AEEA-AEEA-γGlu-Decanoyl(10-(4-HOOC-PhO))])GGPSSGAPPPS-NH2
B7: Example 333 (peptide)
peptide: Y[Aib]EGT[αMePhe(2-F)]TSD[Nle]SI[αMeL]LD[Orn]IAQ[Aib]K([AEEA-AEEA-γGlu-Decanoyl(10-(4-HOOC-PhO))])FI[dE][αMeY]LIK([AEEA-AEEA-γGlu-Decanoyl(10-(4-HOOC-PhO))])GGPSSGAPPPS-NH2
modifications: N-terminus assumed
SMILES: CCCC[C@H](NC(=O)[C@H](CC(=O)O)NC(=O)[C@H](CO)NC(=O)[C@@H](NC(=O)[C@](C)(Cc1ccccc1F)NC(=O)[C@@H](NC(=O)CNC(=O)[C@H](CCC(=O)O)NC(=O)C(C)(C)NC(=O)[C@@H](N)Cc1ccc(O)cc1)[C@@H](C)O)[C@@H](C)O)C(=O)N[C@@H](CO)C(=O)N[C@H](C(=O)N[C@@](C)(CC(C)C)C(=O)N[C@@H](CC(C)C)C(=O)N[C@@H](CC(=O)O)C(=O)N[C@@H](CCCN)C(=O)N[C@H](C(=O)N[C@@H](C)C(=O)N[C@@H](CCC(N)=O)C(=O)NC(C)(C)C(=O)N[C@@H](CCCCNC(=O)COCCOCCNC(=O)COCCOCCNC(=O)CC[C@H](NC(=O)CCCCCCCCCOc1ccc(C(=O)O)cc1)C(=O)O)C(=O)N[C@@H](Cc1ccccc1)C(=O)N[C@H](C(=O)N[C@H](CCC(=O)O)C(=O)N[C@@](C)(Cc1ccc(O)cc1)C(=O)N[C@@H](CC(C)C)C(=O)N[C@H](C(=O)N[C@@H](CCCCNC(=O)COCCOCCNC(=O)COCCOCCNC(=O)CC[C@H](NC(=O)CCCCCCCCCOc1ccc(C(=O)O)cc1)C(=O)O)C(=O)NCC(=O)NCC(=O)N1CCC[C@H]1C(=O)N[C@@H](CO)C(=O)N[C@@H](CO)C(=O)NCC(=O)N[C@@H](C)C(=O)N1CCC[C@H]1C(=O)N1CCC[C@H]1C(=O)N1CCC[C@H]1C(=O)N[C@@H](CO)C(N)=O)[C@@H](C)CC)[C@@H](C)CC)[C@@H](C)CC)[C@@H](C)CC
B8: Example 310 (peptide)
peptide: B1 peptide with X11S, K21E, X24K
modifications: Aib2, αMeF(2F)6, hTyr10, αMeL13, Orn16, Aib20, αMeY25; K24 and K28: AEEA2-(γ-Glu)-(10-(4-carboxyphenoxy)decanoyl); C-terminal NH2

Columns and labels:
Assay in all cases: cell-based or functional assay
human glucagon receptor [1] = molecular target: human glucagon receptor (human, UniProt P47871 26-477)
human GIP receptor [2] = molecular target: T1, human GIP receptor
human GLP-1 receptor [3] = molecular target: human GLP-1 receptor (human, UniProt P43220 24-463)
[4] = molecular target: human glucagon receptor (human) (UniProt P47871)
[5] = molecular target: human glucagon-like peptide-1 (GLP-1) receptor (human) (UniProt P43220)
[6] = molecular target: T2, human glucose-dependent insulinotropic polypeptide (GIP) receptor (human)
human GLP-1 receptor [7] = molecular target: human GLP-1 receptor (human, UniProt P43220 24-463); remark: listed apart in the source
human GIP receptor [8] = molecular target: T3, human GIP receptor; remark: listed apart in the source
human glucagon receptor [9] = molecular target: human glucagon receptor (human, UniProt P47871 26-477); remark: listed apart in the source

Row | Binder | cAMP EC50 (1.0% HSA) (human glucagon receptor [1]) | cAMP EC50 (1.0% HSA) (human GIP receptor [2]) | cAMP Emax (1.0% HSA) (human GIP receptor [2]) | cAMP EC50 (1.0% HSA) (human GLP-1 receptor [3]) | cAMP Emax (1.0% HSA) (human GLP-1 receptor [3]) | cAMP EC50 [4] | cAMP EC50 [5] | cAMP Emax [5] | cAMP EC50 [6] | cAMP Emax [6] | cAMP EC50 (human GLP-1 receptor [7]) | cAMP EC50 (human GIP receptor [8]) | cAMP EC50 (human glucagon receptor [9])
1 | B1 | > 9950 nM | 4.24 nM | 90.2% | 77.7 nM | 109% | > 9950 nM | 1 nM | 108% | 0.022 nM | 103% |  |  | 
2 | B2 | > 9950 nM | 11 nM | 83.9% | 214 nM | 102% | > 9950 nM | 0.584 nM | 96.3% | 0.0197 nM | 100% |  |  | 
3 | B3 |  |  |  |  |  |  |  |  |  |  | 0.207 nM | 0.012 nM | > 9950 nM
4 | B4 | > 9950 nM | 0.552 nM |  | 27 nM | 93.8% | > 9950 nM | 1.88 nM | 88.9% | 0.0195 nM | 96.7% |  |  | 
5 | B5 | > 9950 nM | 4.1 nM | 91.8% | 56.7 nM | 92.7% | > 9950 nM | 0.537 nM | 89.1% | 0.0176 nM | 99.2% |  |  | 
6 | B6 |  |  |  |  |  |  |  |  |  |  | 0.673 nM | 0.0216 nM | > 9950 nM
7 | B7 |  |  |  |  |  |  |  |  |  |  | 0.388 nM | 0.0062 nM | > 9950 nM
8 | B8 |  |  |  |  |  |  |  |  |  |  | 0.347 nM | 0.025 nM | > 9950 nM
